# Experimental data: patent US20250157661
# B1: MMP11 (Enzo) (protein)
# chain: FVLSGGRWEKTDLTYRILRFPWQLVQEQVRQTMAEALKVWSDVTPLTFTEVHEGRADIMIDFARYWHGDDLPFDGPGGILAHAFFPKTHREGDVHFDYDETWTIGDDQGTDLLQVAAHEFGHVLGLQHTTAAKALMSAFYTFRYPLSLSPDDCRGVQHLYGQPWPTVTSRTPALG
# B2: MMP12 (Enzo) (protein)
# chain: GPVWRKHYITYRINNYTPDMNREDVDYAIRKAFQVWSNVTPLKFSKINTGMADILVVFARGAHGDFHAFDGKGGILAHAFGPGSGIGGDAHFDEDEFWTTHSGGTNLFLTAVHEIGHSLGLGHSSDPKAVMFPTYKYVDINTFRLSADDIRGIQSLYG
# B3: MMP7 (Enzo) (protein)
# chain: YSLFPNSPKWTSKVVTYRIVSYTRDLPHITVDRLVSKALNMWGKEIPLHFRKVVWGTADIMIGFARGAHGDSYPFDGPGNTLAHAFAPGTGLGGDAHFDEDERWTDGSSLGINFLYAATHELGHSLGMGHSSDPNAVMYPTYGNGDPQNFKLSQDDIKGIQKLYGKRSNSRKK
# B4: MMP1 (Enzo) (protein)
# chain: FVLTEGNPRWEQTHLTYRIENYTPDLPRADVDHAIEKAFQLWSNVTPLTFTKVSEGQADIMISFVRGDHRDNSPFDGPGGNLAHAFQPGPGIGGDAHFDEDERWTNNFREYNLHRVAAHELGHSLGLSHSTDIGALMYPSYTFSGDVQLAQDDIDGIQAIYGRSQNPVQP
# Target: Indicator molecule containing the cleavable sequence GPQGIFGQ with a terminal biotin group connected via a polyethylene glycol spacer/linker (intact, Examples 1-6)
row,Protein,"Reader value (lateral flow, CF1522-gold) with MMP at 0.5 ug/ml [reader units]"
1,B1,280
2,B2,1250
3,B3,373
4,B4,478
